The text below walks through data of patent CN111138527A (INST MILITARY MEDICINE ACADEMY MILITARY SCIENCES PLA, dated 2020).

One test has as its target GP 95-295 (Ebola virus (EBOV), UniProt Q05320 95-295). In words: ELISA on coated truncated GP. In general terms: In an ELISA, binding on a coated surface is turned into a signal by an enzyme label.
Another test has as its target sGP (Ebola virus (EBOV), UniProt P60170 33-295). In words: ELISA on coated truncated GP.
A further test addresses GP1 (Ebola virus (EBOV), UniProt Q05320 33-501). Put plainly: ELISA on coated truncated GP.
Another test concerns the target T1, EBOV GP (Ebola virus (EBOV), UniProt Q05320 33-650).
T1 sequence: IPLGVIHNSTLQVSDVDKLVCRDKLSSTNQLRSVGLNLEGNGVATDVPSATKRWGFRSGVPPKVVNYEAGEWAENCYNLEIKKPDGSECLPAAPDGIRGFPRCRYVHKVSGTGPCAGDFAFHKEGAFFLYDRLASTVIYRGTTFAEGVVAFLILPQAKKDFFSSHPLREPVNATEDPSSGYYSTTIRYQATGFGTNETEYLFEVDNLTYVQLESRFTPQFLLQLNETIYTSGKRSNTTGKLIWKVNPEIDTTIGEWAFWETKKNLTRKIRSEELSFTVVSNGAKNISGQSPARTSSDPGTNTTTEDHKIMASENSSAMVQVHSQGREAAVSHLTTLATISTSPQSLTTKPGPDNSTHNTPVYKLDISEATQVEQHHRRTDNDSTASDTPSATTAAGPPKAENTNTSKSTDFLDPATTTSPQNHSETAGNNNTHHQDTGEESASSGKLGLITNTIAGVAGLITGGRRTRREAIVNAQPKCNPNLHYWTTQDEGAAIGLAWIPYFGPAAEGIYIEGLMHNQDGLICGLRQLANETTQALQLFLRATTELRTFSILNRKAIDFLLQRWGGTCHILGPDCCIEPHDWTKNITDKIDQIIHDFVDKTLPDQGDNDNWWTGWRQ
In words: ELISA, EBOV GP coated at 1 μg/mL.

B1: 抗埃博拉病毒糖蛋白GP1亚基的单克隆抗体4F1 (antibody, V domains shown)
VH: EVQLVESGGGLVQPGGSLRLSCAASGFSFRIYDMHWVRQVTGRGLEWVSAIGSASDTYYRDSVKGRFTISRENAKNSLYLQMNSLRAGDTAVYYCARASFGELMFDLWGQGTLVTVSS
VL: DIQMTQSPSSLSLSPGERATLSCRASQSVGSSLAWYQQKPGQAPRLLIYAASSRATGFPDRFSGSGSGTDFTLTISRLEPEDFAVYYCQQYGGSPLTFGGGTKVEIKT
As to B1, the concentration for a half-maximal effect (EC50) (usually the concentration at which the effect is half-maximal) stood at 33 ng/mL in the test with GP 95-295, 3.9 ng/mL with sGP, 7.8 ng/mL in the test with GP1 and 5.7 ng/mL in the test with EBOV GP. Besides, the “fold decrease of binding activity relative to GPdTM” value with GP 95-295 was approximately 5 fold.
